These results are taken from a protein production outcome set (Wang et al. 2014).

The series can be described thus: label from the status in PepcDB records.

On to “MEIEQQQPLPSERGLSPVARRALIGAITGCFVLGGVLMLLPPAGREPAAPPAPAAGPMAGPVAQAKAAVGAGVPVALPALAALVTDHETHLRAHPRDARSWAVLGAAYVAQGKGTADAAYFPKAEEALRTSLNVAPRRNAEALGALAALANARGDYREAKQWGEAAVKMAPKQWPAYAQLIDAYDGLGDYKATGKTLDKLLGLRAGPAAAARAAQVYRARGWREDAAAAIADATARAGSPAEQAVYWQQAGELAWERGEPEQALRYFETALRTDPDRHAALAGQGRALAALGRTSDAVNAYRAALAKQPLAAYAVELGELYESQGLGGAAQVQYYLVRERVRQDAAGGVNNRLVVGQFEADHGDAEVAVRELREEWKRQPSIRVADALGWALHRAGQDQEALGFATKAMDKEHGGGVRSALYAYHRGEIERALDQLAPARRHLAEALRINPHFSPWFAPMAKETLAELGEPPAEGLPGDEEVEAAEAEAAEAAEAAQTPEAAESVDPAQTEQVPPPGASTPVPQEPEAR”, for which the protein production entry is on record as “failed”.

For the sequence “MEIEVKFRVNFEDIKRKIEGLGAKFFGIEEQEDVYFELPSPKLLRVRKINNTGKSYITYKEILDKRNEEFYELEFEVQDPEGAIELFKRLGFKVQGVVKKRRWIYKLNNVTFELNRVEKAGDFLDIEVITSNPEEGKKIIWDVARRLGLKEEDVEPKLYIELING”, the protein production result is “not failed”.

For “MEIFEDVVRCGGFRAAALGRGVSSSAISQSISVLEEALGIRLLNRTTRSVAPTEAGEQLLERLRPALYEIRTAVDDLNQLRERPSGTVRINAPGPAADHVLCPLTFEFMKIYPDVNVEIVSDAAIIDIVEQGFDAGVRFGNQLAQDMIAMPLGPALRYAIVASPDYLRKRGRPHSPRDLLQHDCIRRRFPGGTMVTWKFARDGDEVEITPKGRLTLSSAHQELQAALAGSGIAHLFEDYVRDDVEQGRLVELLCDWKQKLPSWYLYYPSRRHTSAAMRAFLEYIRNQRQHPDRR”, the protein production entry was “failed”.

As for “MEIFELILLMLSAVFLSNVLSRFLPSIAVPLIQVLLGIILAIPLGDHTMDINPELFLLLFMAPILFNDGARTDKKSLWKNRKAILSLSIGLVFVTVGVLGAFIHYLIPAIPFAAAFALAAALAPTDAVAVGALAEKVRVPHKIMHILEGESLINDASGLVSFQFAVLALVTGTFSFMSAGTSFLLLSLGGIALGVVLSLLKIMLMRGLRQLGIENMTSFMLMEILLPFLIFMVAENIGVNGILAVVSGGMVHSFSYKRINPEMAQLNLLSKNTWSVIIFSLNGLVFVLLGTQLPQIMTAIWEDTGIHKSMLFLYIFGITFLLLALRFLWILFFRNYEENPHADLVSRLKNTFLYTVAGVRGTITLVSALSLPFVLGQGNAFPERDLLIFIAAGVIITTLLLANFTLPLFAAKKDVVVADHTTAIALLRDVVGQLQRYKTDENEVEMNNVLKMYNGRIFSLMEHKEVSATEKELRRLTQEWQLENTRRLVFERKIDTGVGLSLMMRLGKRLYVQTRAQKYRARMRYRQLLSHSIRDFRIVPLSFEERRKERAKLQTENNQFVVQKLNELDKNEFNPEVISLYLMNFERALGSGKHKKETDNEELQTTIDLASQIERETIQHYFEKGTITRKEMKVYRDNLLAIEASFQLEF”, the protein production entry is reported as “failed”.

In the case of “MEIFILIGLIVLNGLFAMSEIAIVTARKSRLTALAHAGSSTAKAALKLAEDPTQFLSTVQIGITSIGILNGIFGESILAEPLSLWLQTFGLSPDVTNIFSTVLVVIIVTYVSIVIGELVPKRIGQVSAESIACIMAKPMVFLAIATKPFVWMLSGSTHALMRLMGFSHRLDDNVTQEDIQAMLQEGSSAGVIEHNEHAMVKNVFRLDERTISSLMVPRSDIVFLDLNLPLDANLRTVMQSPHSRFPVCRNNVDDMVGIISAKQLLSESIAGERLELVDLVKNCNFVPNSLSGMELLEHFRTTGSQMVFVVDEYGDLKGLVTLQDMMDALTGEFFQEDVNDQMVIKREDGSLLLDGLIPIFDLKDALGIKQLPNEEDGRYQTLNGFLMYELGKIPQTTDIVEVAGWRLEIMDMDGKRVDKVLAQKLPDAEDSEESIFVDL”, the protein production result is reported as “failed”.

As for “MEIGIIGTGNIGGTLARKLIAAGHQVRVANSKGIHGVQSFADEIGATAVDVYGAVKGADAIILSIPLPALASLPNGFFDDLPETVPLIDTSNYYPGLRDPLIPEIDDGMTESVWVSQQLSHPVIKAFNNILAWSLAELGTPKGSASRLAIAVAGDNATLKQIVMNLVDDTGFDAIDAGSLEESWRQQPSTPAYCCDYDAETMKKGLTAAVRGEAASKRDRLPELFGKLGANPTHEDIVAMNRSLNPLEHHHHHH”, the protein production entry is on record as “not failed”.

As for “MEIGVVGKPNVGKSTFFSAATLVDVEIANYPFTTIEANVGVTYAITDHPCKELGCSPNPQNYEYRNGLALIPVKMVDVAGLVPGAHEGRGLGNKFLDDLRMASALIHVVDATGKTDPEGQPTDYHDPVEDIEFLEREIDYWIYGILSKGWDKFAKRIKLQKIKLESAIAEHLSGIGVNENDVWEAMHKLNLPEDPTKWSQDDLLAFASEIRRVNKPMVIAANKADAASDEQIKRLVREEEKRGYIVIPTSAAAELTLRKAAKAGFIEYIPGASEFKVLRDMSEKQKRALMVIKEKVLDRFGSTGVQEVINRVVFDLLKLIPVYPVHDENKLTDQFGNVLPHVFLMKKGSTPRDLAFKVHTDLGKGFLYAINARTKRRVGEDYELQFNDIVKIVSVTR”, the protein production entry is given as “not failed”.

As for “MEIKPVSPEIVSDKLTKVILVFYKTISEIIYPLAILGYCISVILIITGSCFHSRTVMKMGIVNFCVITLVLISYFFMPSFIGILKSIETILR”, the protein production entry is given as “failed”.

For the sequence “MEIKRILVSRTDKIGDLVLSIPSFFMLKKMYPNAELVVIVRKYNVDIVKNLPYIDRIVIIDEYSKAELLEKIAYFKADVFIALYNDSYIASLARASKAKIKIGPISKLSSFFTYNKGVLQKRSLSLKNEGQYNLDLVTKLDRKRFAILEHHHHHH”, the protein production result is listed as “failed”.

As for “MEILHFSPSSSISTIIHRPRRKIMALRDSIKTQMNLITTESVSSFRFCPCGRRHFIGAAMTSMPFLPISPSHASTSTEDLKRLRPPKPDWYEEFFAWSMNSEVESYEKEVSDYKMKLFDNLVGKAEKVLEIGIGTGPNFKYYTDIPNVSVIGIDPNAKMESYARKSATEAGLKPEEFTFVHALGESIPLEDASVDAVVGTLVLCSVTDVTQTLKEIKRILRPGGIYIFIEHVAAEDGTFLRLVQTVLDPLQQVVADGCHLTRHTGESILEARFNGGADVKKTSLSRLAYISSHVYGVAYN”, the protein production result is “failed”.

As for “MEILSLGEKIKARRKELNMTLKDLAGDRITPGQISLVESGKSNPSMDLLEYLAGALNTSVEYLMESEETQAEKICVYYENTAEAYMLNDELMEAEQYLEKAMYYAENYKISYRKARTLYLYGCINMNKNELGVAQQFFLSSNVLFIKLNHYEDIINTFINLGKITLNLKAYNSSCSYFEQAERVSRDNDIGNDFLIGEIYYYMSLVYFKMNNSNKTIKYCLMAKEKFAELENKKEYARTLLILSKEYSKSGDVDNAIKYSKKALKAFKENDNMFAVADIENELGKLFYEFENIEESFIHLNKAKEIRKKTKGHEFIETLCNICENYIKLKDTENSQKVLNEIKENIDGNNVFDILKYYMLKYRISILNRSLKEAENILLRALQYAENMELEKEAAEFSVIIGKYYIDNGDDVEAAKYLNSGIEKFKKIGVLKDL”, the protein production result is “failed”.

Take “MEILTCIKQVPGTTSVEVDETTGVLKRDGVDSKMNPYDLYALETALRIKEDKKANLKVLSMGPPQAKKVIEESFMMGADEGALISDRRFGGADVLATSYTISQGIKKMGKVDLIICGKQTTDGDTAQVGPEVAEFLDIPHVTNVTKLIEVKDESIVVEIDMPNDLQVCEIEYPCLITVEKDIFQPRLPSFKLKLNTKDREIPVYSLDDFEDKNENNYGLNGSPTQVVRIFPPKPNTDKNIVRGNADELSFALVNKLEELKLV”: the protein production result is given as “not failed”.

Regarding “MEILYIKGDATAPIGSGVKVITHICNDIGGWGKGFVLALSKKWKMPEEAYRQWYKSQEEFTLGAVQFVNVENKLYVANMIGQHGIYKDSKGLPPIRYDAVRQCLKEVALFTIAHKASVHMPRIGCGLAGGKWELMEQIIKEELITKEIAVTVYDL”, the protein production entry is reported as “not failed”.

Turning to “MEIMKKQNSQINEINKDEIFVVVPAFNEEKMIGETLKNLKKEGYKNIVVVDDGSMDKTSEIAKKEGVIVCRHILNRGLGGALGTGIKCALLYKPKIIITFDADGQHHPKDVEKVVKPVLFEGYDMAIGSRMMDKNELKNMPLVKRIGNFGLNFITYLMGGYFVTDSQSGLRAFSYEAAKKIIGDLKSDRYEVSSEFIILAKKHGLKLKEVPIKTIYTEYSMSRGTNVITGFKILFKLIMQKIF”, the protein production entry is given as “failed”.

On to “MEIQIVTGFLGAGKTTFLNRYLPLLSGKTVVIENEFGDIGIDGDRIQEDIPVREIFAGCICCSLAMDFRKGIKEIAENFHPDRILIEPSGVGRLTDIVKACQMAREREKVSLQITKLIAIVDMASFEEYIEGFGAFYQDQIERAGLLLLSHVEAENKAQKEIIIGRLKELNPDAILYDGDWRQLENEELLKLLEEAPDYDEDARRDAAFAALPADKVFSSVSFMDLPQMRIEDLEAIMKALEKEEYGYILRAKGWIETMEKGLVHFDFTPTVSKYREEKNPAGTGGEAVVIGCGLNQAALEMLFRRKNILEHHHHHH”, for which the protein production result was “not failed”.

“MEISEYFKDWMELYKKNAIDEMTYKGYEQTLKYLKTYMPNVLISEITASSYQRALNKFAETHAKASTKGFHTRVRASIQPLIEEGRLQKDFTTRAVVKGLEHHHHHH”: the protein production result is recorded as “not failed”.

As for “MEITKIRGTLPSITYWNSTTPIKYTYNGTTYTGYMGNYWSDYNGTDSDGDGIGDTSYTVPNDLGTDNHPLMQPFENYNLEHHHHHH”, the protein production result is reported as “failed”.

Take “MEITPKRYWRRWRGYEKLDGSSETTSGRRKGKRVKMDPTRKKRFWRIKIVPKLRILKTASPKKFLVWLRDSYVKMMMRLANSRVVGSSGYGGSGFGSGQMKEYDEKMLVEIYKSILMVQAQGNLVHRDTPNNNLKLPSEPAVVSVVSSVVTC”: the protein production result was “failed”.

For the sequence “MEKALTKVTSFKVGSSWISKKAKEELSNITNDLTTFSSTVEEKAKWIFNKLKGKPLKSLPDLLKEYNLPPGLFPQNIICYEFDETKNKLTVFFSSPCEVTFKDGSAIRYATRVKGILLRGKLMGVEGMKTKVLVWVKVTTISVESSKSDKLWFTAGVKKSRSKDVYDTPHDAIKVIGEF”, the protein production entry was “failed”.

As for “MEKASSPEKWLAKVSVTLTKAKPDEIWPLFTDFFNLHKWLPTLATCHGVHGNNGEQGCIRFCSGFSIGSNGVDSAARWSKEKLVAVNPVERVMRYEIVESNTGFESYVSTVKILPRGEDGCVIEWSFTVDPVRGLSLENLVKKYEKALEIITKNMEEDALRRRESSS”, the protein production result is reported as “failed”.

For the sequence “MEKEKKEGWAHPEAAEKYAQTADIIIPERKEILSIISKAAIDLGPMDPKIIDLGCGLGDVTAEILKLKLQADVLMIDFSDEMIRRSSERFRDNKNITVVKRDLNQGILDITEDRGFDAVVSCFSIHHVEFENRIKLYSDIRKLLKEQGLFINGDLFREDSPAIDQWEFNNRIFSLMIQLKEKLGQEWTFEELKLNRLENSQKMGDKPGTIWETFHDMKAAGFRHVDCLWKSRNLAIMAATKP”, the protein production result is “failed”.

For the sequence “MEKFKYSLLVLFGACSYGILSTIFKLGFINGFSAHQLLGGQYVFGWIGLFLLVLFFSRHKVTKKQFFSLLTVGTTMSMTGIFYAISVEELPASIAVVLLFQFTWIGVIIEAIANRTFPSRDKIISILILFAGTLFAGGVFEGLGQSFSTKGIIFGLLAAVSFSFYVFASGRVATDVPPYTKSFLMTTSATLIVCLFFPPTFLTDGALQAGLWKYAFFLGLFGVVVPVICFSIGVPKVGTGLGTILGAAELPTAIIASITLVHEVVTFMQWIGIIFILVGIFIPQLLTARKERKQNRVHSA”, the protein production entry is “failed”.
